Bridge positions count the residues as written; N and C are the ends. Square brackets hold non-standard residues; d marks the D form. Ends that are not written are not given here. S5 = C=CCCC[C@](C)(N)C(=O)O
Key:
[1] = target: T1, native VLCAD (Mus musculus, UniProt P50544); assay: Biotinylated SAHB pulldown from MEF lysates, anti-VLCAD Western analysis; format: binding; conditions: for summary of binding properties: binding to VLCAD: pull-downs and ITC
T1 construct: As for native VLCAD from MEF lysates; endogenous in cells; host or cells: SV-40-transformed wild-type mouse embryonic fibroblasts (lysate)
T1 sequence (P50544 42-656): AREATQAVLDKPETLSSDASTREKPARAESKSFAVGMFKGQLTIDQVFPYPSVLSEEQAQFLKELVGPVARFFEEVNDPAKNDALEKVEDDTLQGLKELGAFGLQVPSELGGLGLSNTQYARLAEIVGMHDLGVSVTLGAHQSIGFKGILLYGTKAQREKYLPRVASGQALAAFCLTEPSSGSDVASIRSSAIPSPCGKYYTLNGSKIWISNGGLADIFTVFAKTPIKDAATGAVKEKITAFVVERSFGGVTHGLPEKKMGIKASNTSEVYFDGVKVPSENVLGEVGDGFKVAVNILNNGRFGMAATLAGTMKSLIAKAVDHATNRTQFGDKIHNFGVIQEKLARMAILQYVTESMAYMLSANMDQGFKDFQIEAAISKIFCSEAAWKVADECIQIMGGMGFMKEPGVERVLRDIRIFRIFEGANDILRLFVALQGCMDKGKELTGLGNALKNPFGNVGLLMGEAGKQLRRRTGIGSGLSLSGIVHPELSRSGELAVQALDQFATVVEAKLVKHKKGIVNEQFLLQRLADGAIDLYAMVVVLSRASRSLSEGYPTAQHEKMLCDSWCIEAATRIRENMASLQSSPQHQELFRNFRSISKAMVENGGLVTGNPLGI
Source text: To validate the MS result, the pulldowns were repeated and eluates run on a gel for anti-VLCAD Western blot analysis. […] All peptides faithfully recapitulated native BH3-binding propensities for endogenous MCL-1 protein (FIG. 8). The eluates were then probed for the other members of the acyl-CoA dehydrogenase family that manifest shorter fatty acid substrate specificities. MCL-1 SAHBD was able to pull down VLCAD, but not MCAD or SCAD (FIG. 9). Because the traditional MCL-1 staple location differs from that of the BIM, BID, and BAD SAHBs, it was important to confirm that the observed VLCAD binding specificity was due to BH3 sequence selectivity, not staple position. A BIM SAHB with the traditional MCL-1 staple (BIM SAHBF), and a MCL-1 stapled peptide with the traditional BIM staple (MCL-1 SAHBA), were generated. […] To confirm that the selective interaction between MCL-1 SAHBD and VLCAD is direct, recombinant VLCAD was generated and purified by size exclusion chromatography (FIGS. 11 and 12).
The binding determinants for the MCL-1 BH3/VLCAD interaction were investigated by generating a series of biotinylated MCL-1 SAHBD alanine point mutants (FIG. 18A) and performing streptavidin pull-downs from MEF lysates, followed by VLCAD and MCL-1 western analysis of the resulting eluates. […] Native alanines and residues not mutated are colored white. The dotted semicircles highlight the distinctive MCL-1 BH3 binding interfaces for VLCAD versus MCL-1 engagement, as defined by the differential sensitivities to alanine mutagenesis.
(§1) Wild-type MEFs were trypsinized, washed once with cold PBS, and lysed on ice with NP-40 lysis buffer (50 mM Tris, pH 7.4, 150 mM NaCl, 0.5% (v/v) NP-40, complete protease inhibitor pellet (Roche)) using 1 ml of lysis buffer for every 10 million cells lysed. Cellular debris was pelleted at 14,000 g for 10 min at 4° C., and the supernatant was quantified using the BCA Protein Assay Kit (Thermo Fisher Scientific). 2 mg of lysate per pulldown were then exposed to 50 μL of pre-equilibrated High Capacity Streptavidin Agarose beads (Thermo Fisher Scientific). The pre-cleared lysates were then incubated with 15 nmol biotinylated SAHBs (or vehicle, 1.5% (v/v) DMSO) overnight at 4° C., followed by addition of 50 μL of pre-equilibrated High Capacity Streptavidin Agarose beads for 2 hours at 4° C. The beads were then pelleted and washed with NP-40 lysis buffer three times before eluting the protein sample from the beads by heating at 70° C. for 10 min in SDS loading buffer. Samples were then subjected to electrophoresis and either Western analysis or Coomassie stain (SimplyBlue Safe Stain, Thermo Fisher Scientific). The antibodies used for Western analysis were the following: MCL-1 (Rockland 600-401-394; 1:1000 in 3% BSA), VLCAD (Thermo Fisher Scientific PA5-29959; 1:1000 in 1% milk+0.1% Tween-20), MCAD (Thermo Fisher Scientific PA5-27201; 1:1000 in 3% BSA), and SCAD (Abcam ab154823; 1:1000 in 3% BSA). Coomassie stained gels were then processed for proteomics analysis (see below). Biotinylated SAHB pulldowns of recombinant protein were performed as above incubating 5 nmol of SAHB with 10 pmol of rVLCAD in 500 μL total volume. Densitometry analyses were performed using ImageJ software.

[2] = tested on: endogenous MCL-1; assay: Biotinylated SAHB pulldown from MEF lysates, anti-MCL-1 Western analysis; format: binding, mouse; conditions: summary, pull-downs
Procedure: An exploratory proteomics analysis was conducted to identify proteins that interact with the MCL-1 BH3 domain helix. An extensive library of MCL-1 stapled BH3 peptides (FIG. 2) was generated to both identify novel protein interactors by mass spectrometry and then deploy the stapled peptide constructs as novel probes to dissect and pharmacologically modulate the identified protein interactors and associated signaling pathways. As an example, an N-terminally biotinylated stapled peptide designed based on the sequence of MCL-1's BH3 domain (Btn-MCL-1 SAHBD), or vehicle, was incubated with wild-type mouse embryonic fibroblast (MEF) lysates, followed by high stringency streptavidin capture. To validate the proteomics workflow and ensure that Btn-MCL-1 SAHBD could, in fact, engage protein interactors in a lysate, eluates were first run on a gel for anti-MCL-1 Western analysis. […] For mass spectrometry (MS) analysis, eluates were run on a reducing/denaturing gel followed by Coomassie staining (FIG. 4) and in-gel digestion was performed before injection on the instrument.
The binding determinants for the MCL-1 BH3/VLCAD interaction were investigated by generating a series of biotinylated MCL-1 SAHBD alanine point mutants (FIG. 18A) and performing streptavidin pull-downs from MEF lysates, followed by VLCAD and MCL-1 western analysis of the resulting eluates. […] Native alanines and residues not mutated are colored white.
as §1, with “The pre-cleared lysates were then incubated with 15 nmol biotinylated SAHBs (or vehicle, 1.5% (v/v) DMSO) overnight at 4° C., followed by addition of 50 μL of pre-equilibrated High Capacity Streptavidin Agarose beads for 2 hours at 4° C.” left out, “The antibodies used for Western analysis were the following: MCL-1 (Rockland 600-401-394; 1:1000 in 3% BSA), VLCAD (Thermo Fisher Scientific PA5-29959; 1:1000 in 1% milk+0.1% Tween-20), MCAD (Thermo Fisher Scientific PA5-27201; 1:1000 in 3% BSA), and SCAD (Abcam ab154823; 1:1000 in 3% BSA).” left out

Chain of endogenous MCL-1 (P97287 152-308 limits assumed): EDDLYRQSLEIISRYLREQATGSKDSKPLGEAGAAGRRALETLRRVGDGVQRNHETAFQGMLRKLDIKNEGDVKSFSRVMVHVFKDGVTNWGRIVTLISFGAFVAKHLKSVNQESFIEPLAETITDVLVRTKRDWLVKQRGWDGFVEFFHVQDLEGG

With “H224A: biotinylated MCL-1 SAHBD alanine point mutant H224A (RKALETLRRVGDGV[S5]RNA[S5]TAF; staple 15-19; also: biotinylated, place not given here)” the “summary of binding properties: binding to VLCAD” value (shortened to “summary … to VLCAD”) [1] was “Does not bind” and the “summary of binding properties: binding to MCL-1” value (from here on “summary … to MCL-1”) [2] was “Does not bind”.
“T212A: biotinylated MCL-1 SAHBD alanine point mutant T212A (RKALEALRRVGDGV[S5]RNH[S5]TAF; staple 15-19; also: biotinylated, place not given here)” was tested, and the “summary … to VLCAD” value [1] was “Binds” and the “summary … to MCL-1” value [2] was “weakly or not”.
For “V216A: biotinylated MCL-1 SAHBD alanine point mutant V216A (RKALETLRRAGDGV[S5]RNH[S5]TAF; staple 15-19; also: biotinylated, place not given here)”, the “summary … to VLCAD” value [1] was “Binds” and the “summary … to MCL-1” value [2] was “weakly or not”.
In the case of “K208A: biotinylated MCL-1 SAHBD alanine point mutant K208A (RAALETLRRVGDGV[S5]RNH[S5]TAF; staple 15-19; also: biotinylated, place not given here)”, the “summary … to VLCAD” value [1] is reported as “enhanced binding” and the “summary … to MCL-1” value [2] is reported as “diminished binding”.
With “G217A: biotinylated MCL-1 SAHBD alanine point mutant G217A (RKALETLRRVADGV[S5]RNH[S5]TAF; staple 15-19; also: biotinylated, place not given here)” the “summary … to VLCAD” value [1] was “Binds” and the “summary … to MCL-1” value [2] was “weakly or not”.
“L210A: biotinylated MCL-1 SAHBD alanine point mutant L210A (RKAAETLRRVGDGV[S5]RNH[S5]TAF; staple 15-19; also: biotinylated, place not given here)” was tested, and the “effect of alanine mutation on biotinylated MCL-1 SAHBD interaction with VLCAD” value ([1]; pull-downs from MEF lysates) was “uniquely disruptive”, the “summary … to VLCAD” value [1] was “weakly or not” and the “summary … to MCL-1” value [2] was “Binds”.
“E211A: biotinylated MCL-1 SAHBD alanine point mutant E211A (RKALATLRRVGDGV[S5]RNH[S5]TAF; staple 15-19; also: biotinylated, place not given here)” was tested, and the “summary … to VLCAD” value [1] was “Binds” and the “summary … to MCL-1” value [2] was “Binds”.
In the case of “G219A: biotinylated MCL-1 SAHBD alanine point mutant G219A (RKALETLRRVGDAV[S5]RNH[S5]TAF; staple 15-19; also: biotinylated, place not given here)”, the “summary … to VLCAD” value [1] is reported as “Binds” and the “summary … to MCL-1” value [2] is reported as “Binds”.
With “T226A: biotinylated MCL-1 SAHBD alanine point mutant T226A (RKALETLRRVGDGV[S5]RNH[S5]AAF; staple 15-19; also: biotinylated, place not given here)” the “summary … to VLCAD” value [1] was “diminished binding” and the “summary … to MCL-1” value [2] was “diminished binding”.

Reference: patent US12366576B2, “Compositions, assays, and methods for direct modulation of fatty acid metabolism” (Dana-Farber Cancer Institute, Inc., priority 2016, dated 2025)
